The assay concerns the target C-terminal TAP-tagged PB1 (influenza A virus, strain not stated). As to the kind of experiment: pull-down.

B1: DDX21, plasmid-expressed (pcDNA3 plasmid expressing DDX21) (natural protein)
chain: MPGKLRSDAGLESDTAMKKGETLRKQTEEKEKKEKPKSDKTEEIAEEEETVFPKAKQVKKKAEPSEVDMNSPKSKKAKKKEEPSQNDISPKTKSLRKKKEPIEKKVVSSKTKKVTKNEEPSEEEIDAPKPKKMKKEKEMNGETREKSPKLKNGFPHPEPDCNPSEAASEESNSEIEQEIPVEQKEGAFSNFPISEETIKLLKGRGVTFLFPIQAKTFHHVYSGKDLIAQARTGTGKTFSFAIPLIEKLHGELQDRKRGRAPQVLVLAPTRELANQVSKDFSDITKKLSVACFYGGTPYGGQFERMRNGIDILVGTPGRIKDHIQNGKLDLTKLKHVVLDEVDQMLDMGFADQVEEILSVAYKKDSEDNPQTLLFSATCPHWVFNVAKKYMKSTYEQVDLIGKKTQKTAITVEHLAIKCHWTQRAAVIGDVIRVYSGHQGRTIIFCETKKEAQELSQNSAIKQDAQSLHGDIPQKQREITLKGFRNGSFGVLVATNVAARGLDIPEVDLVIQSSPPKDVESYIHRSGRTGRAGRTGVCICFYQHKEEYQLVQVEQKAGIKFKRIGVPSATEIIKASSKDAIRLLDSVPPTAISHFKQSAEKLIEEKGAVEALAAALAHISGATSVDQRSLINSNVGFVTMILQCSIEMPNISYAWKELKEQLGEEIDSKVKGMVFLKGKLGVCFDVPTASVTEIQEKWHDSRRWQLSVATEQPELEGPREGYGGFRGQREGSRGFRGQRDGNRRFRGQREGSRGPRGQRSGGGNKSNRSQNKGQKRSFSKAFGQ
Regarding B1, the percent reduction of TAP-selected PA by DDX21 (1 μg plasmid) was 75% and the percent reduction of TAP-selected PB2 by DDX21 (1 μg plasmid) is 65%.
